In the RNAGym collection of RNA variant scans (doi:10.1073/pnas.2313332121):

B1: TPR t1 (parent)
chain: GACCAAUCUGCCCUCAGAGCUCGAGAACAUCUUCGGAUGCAGAGGAGGCAGGCUUCGGUGGCGCGAUAGCGCCAACGUCCUCAACCUCCAAUGCAUCCCACCACAUGAUGAUGCCUGAAGAGCCUUGGUUUUUUG

Variants of: B1
Assay: polymerase ribozyme fitness, log enrichment relative to wild type (log ratio); higher = more active; in vitro selection for triplet polymerase activity
Method in brief: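 One round of in vitro selection, in triplicate, was applied to PCR-built, transcribed mutant libraries of each subunit of a heterodimeric triplet polymerase ribozyme. The steps were annealing with a biotinylated primer, partner subunit and triplets, incubation frozen at −7 °C, gel excision of extended constructs, streptavidin-bead capture and RT-PCR. Fitness is the logarithm, base 2, of genotype enrichment over wild-type enrichment from inverse-variance-weighted replicate averages of Illumina-sequenced inputs and outputs, keeping genotypes with ≥10 input reads and ≥1 read per output.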

Variant | polymerase ribozyme fitness (log ratio)
GACCAAUCUGCCCUUAGAGCUCGAGAACAUCUUCGGCUGCAGAGGAGGCAGGCUUCGGUGCCGCGAUAGCGCCAACGUCCUCAACCUCCAAUGCAUCCCACCACAUGAUGAUGCCUGAAGAGCCUUGGUUUUUUG | -3.39
GACCAAUCUGCCCUUAGAGCUCGAGAACUUCUUCGGAUGAAGAGGCGGCAGGCUUCGGUGGCGCGAUAGCGCCAACGUCCUCAACCUCCAAUGCAUCCCACCACAUGAUGAUGCCUGAAGAGCCUUGGUUUUUUG | -5.8
GACCAAUCUGCCCUUAGAGCUCGAGAGCAUCAUCGGAUGCAGAGGCGGCAGGCUUCGGUGGCGCGAUAGCGCCAACGUCCUAAACCUCCAAUGCAUCCCACCACAUGAUGAUGCCUUAAGAGCCUUGGUUUUUUG | -5.76
GACCAAUCUGCCCUUAGAGCUCGAGAACAUCUUCGGAUGCGGAGGAGGCAGGCUUCGGUGGCGCGAUAGCGCCAACGUCCUCAACCUCCAAUGCAUCCCACCACAUGAUGAUGCCUGAAGAGCCUUGGUUUUUUG | -1.83
GACCAAUCUGCCCUUUGAGCUCGAGAACAUCUUCGGAUGCAGAGGAGGCAGGCUUCAGUGGCGCGAUAGCGCCAACGUCCUUAACCUCCAAUGCAUCCCACCACAUGAUGAAGCCUGAAGAGCCUUGGUUUUUUG | -5.23
GACCAAUCUGCCCUUAGAGCUCGGGAACAUCUUCGGAUGCGGAGGAGGCAGGCUUCGGUGGCGCGAUAGCGCAAACGUCCUCAACCUCCAAUGCAUCCCACCACAUGAUGAUGCUUGAAGAGCCUUGGUUUUUUG | -2.38
GACCAAUCUGCCCUGAGAGCUCGAGAACAUCUUCGGAUGCAGAGGAGGCAGUCUUCGGUGGCGCGAUAGCGCCAACGUCCUCAACCUCGAAUGCAUCCCACCACAUGAUGAUGCCUCAAGAGCCUUGGUUUUUUG | -1.36
GACCAAUCUGCCCUUAGAGCUCGGGAACAUCUUCGGAUGCGGAGGAGGCAGGCUUCGGUGGCGCGAUAGCGCCAACGUCCUCAACCUCCAAUGCAUCCCACCACAUGAUGAUGCUUGAAGAGCCUUGGUUUUUUG | -2.93
GACCAAUCUGCCCUGAGAGCUCGAGAACAUCUUCGGAUGCAGAGGAGACAGGCUUCGGUGGCGCGAUAGCGCCAACGUCCUCAAGCUCCAAUGCAUCCCACCACAUGAUGAUGCCUGAAGAGCCUUGGUUUUUUG | -3.62
GACCAAUCUGCCCUUAGAGCUCGAGAACAUCUUCGGCUGCAGAGGAGGCAGGCUUCGGUGGCGCGAUAGCGCCAAGGUCCUCAACCUCCAAUGCAUCCCACCACAUGAUGAUGCCUGAAGAGCCUUGGUUUUUUG | -2.14
GACCAAUCUGCCCUUAGAGCUCGAGAAGAUCUUCGGAUUCAGAGGAGGCAGGCUUCGGUGGCGCGAUAGCGCCAACGUCCUCAACCUCCAAUGCAUCCCACCACAUGAUGAUGCCUGAAGAGCAUUGGGUUUUUG | -5.23
GACCAAUCUGCCCUGAGAGCUCGAGAACAUCUUCGGAUGCACAGGAGGCAGGCUUCGGUUGCGCGAUAGCGCCAACGUCCUCAACCUCCAAUGUAUCCCACCACAUGAUGAUGCCUGUAGAGCCUUGGUUUUUUG | -3.25
GACCAAUCUGCCCUUAGAGCUCGAGAACAUCUUCGGAUGCAGAGGGGGCAAGCUUGGGCGGCGCGAUAGCCCCAACGGCCUCAACCUCCAAGGCAUCCCACCACAUGAUGAUGCCUGAAGAGUCUUGGUUUUUUG | -6.11
GACCAAUCUGCCCUGAGAGCUCGAGAACAUCUUCGGAUGCAGAGGAGGCAGGCUUCGGGGGCGCGAUAGCGCCAACGUCCUCAACCUCCAAUGCAUCCCACCACAUGAUGAUGCCUGAAGAGCCUUGGUUUUUUG | -2.27
GACCAAUCUGCCCUUAGAGCUCGAGAAAAUCUUCGGAUGCAGAGGAGGCAGGCUUCGGUGGCGCGAUAGCGUCAAGGUCCUCAACCUCCAAUGCAUCCCACCACAUGAUGAUGCCUGAAGCGCCUUGGUUUUUUG | -3.19
GACCAAUCUGCCCUGAGAGCUCGAGAACAUCUUCGGAUGCAGAGGAGGCAGGCUUCGGUGGCGCGAUAGCGCCAACGUCCUCAACCUCCAAUGCAUCCCACCACAUAAUGAUGCCUGAAGAGCCUUGGUUUUUUG | -5.32
GACCAAUCUGCCCUUUGAGCUCGAGAACAUCUUCGGAUGCAGAGGAGGCAGGCUUCGGUGGCGCGAUAGCACCAACGUCCUCAACCUCCAAUGCAUCCCACCACAUGAUGAUGCAUGAAGAGCCUUGGUUUUUUG | -3.96
GACCAAUCUGCCCUGAGAGCUCGAGAACAUCUUCGGAUGCAGAGGAGGCAGGCUUCGGUGGCGCGAUAGCACCAACGUCCUCAACCUCCAAUGCAUCCCACCACAUGAUGAUGCCUGAAGAGCCUUGGUUUUUUG | -2.92
GACCAAUCUGCCCUGAGAGCUCGAGAACAUCUUCGGAUGCAGAGGAGGCAGGCUUCGGUGGCGCGAUAGCACCAACGUCCCCAACCUCCAAUGCAUCCCACCACAUGAUGAUGCCUGAAGAGCCUUGGUUUUUUG | -4.61
GACCAAUCUGCCCUUAGAGCUCGAGAACAUCUUCGGAUGCGGAGGAGGCAGGCUUCCGUGGUGCGAUAGCGCCAACGUCCUCAACCUCCAAUGCAUCCCACCACAUGAUGAAGCCUGAAGAACCUUGGUUUUUUA | -1.87
GACCAAUCUGCCCUUAGUGCUCGAGAACAUCUUCGGAUGCAGAUGAGGCAGGCUUCGGUGGCGCGAUAUCGCCAACGUCCUCAACCUCCAAUGCAUCCCACCACAUGAUGAUGCCUCAAGCGCCUUGGUUUUUUG | -4.92

Variant | polymerase ribozyme fitness (log ratio)
GACCAAUCUGCCCUGAGAGCUCGAGAACAUCUUCGGAUGCAGAUGAGGCAGGCUUCGGUGGCGCGAUAGCGUCAACGUCCUCAACCUCCAAUGCAUCCCACCACAUGAUGAUGCCUGAAGAGCCUUGGUUUUUUG | -4.59
GACCAAUCUGCCCUGAGAGCUCGAGAACAUCUUCGGAUGCAGAGGAGGCAGGCUUCGGGGGCGCGAUAGCGCCAACGUCCUCAACCUCCAAUGCAUCCCACCACAUGAUGAUGCCUGAAGAGGCUUGGGUUUUUG | -1.59
GACCAAUCUGCCCUUAGAGCUCGAGAACAUCUUAGGAUGCAGAGCAGGCAGGCUUCGGUGGCGCGAUAGCGCCAACGUCCUCAACCUCCAAUGCAUCCCACCACAUGAUGAUGCCUGAAGAGCCUUGGUUUUUUG | -6.34
GACCAAUCUGCCCUGAGAGCUCGAGAACAUCUUCGGAUGCAGAGGAGGCAGGCUUCGGUAGCGCGAUAGCGCCAACGUCCUCAACCUCCAAUGCAUCCCACCACAUGAUGAUGCCUUAAGAGCCUUGGUUUUUUG | -0.472
GACCAAUCUGCCCUGAGAGCUCGAGAACAUCUUCGGAUGCAGAGGAUGCAGGCUUCGGUGGCGCGAUAGCGCCAACGUCCUCAACCUCCAAUGCAUCCCACCACAUGAUGAUGCCUGAAGAGCCUUGGUUUUUUG | -3.95
GACCAAUCUGCCCUGAGAGCUCGAGAACAUCUUCGGAUGCAGAGGAGGCAGGCUUCGGUGGCGCGAUAGCGCCAACGUCCUCAACCUCCAAUGCAUCCCACCACAUGAUGAUCCCUGAAGAGCCUUGGUUUUUUG | -6.27
GACCAAUCUGCCCUGAGAGCUCGAGAACAUCUUCGGAUGCAGACGAAGCAGGCUUCGGUGGCGCGAUAUCGCCAACGUCCUCAACCUCCAAUGCAUCCCACCACAUGAUGAUGCCUGAAGAGCCUUGGUUUUUUG | -3.06
GACCAAUCUGCCCUGAGAGCUCGAGAACAUCUUCGGAUGCAGAGGAGGCAGGCUUCGGUGGCCCGAUAGCGCCAACGUCCUCAACCUCCAAUGCACCCCACCACAUGAUGAUGCCUCAAGAGCCUUGGUGUUUUG | -0.822
GACCAAUCUGCCCUUAGAGCUCGAGAACAUCUUCGGAUGCAGAGGGGGCAGGCUUCGGUGGCGCGAUACCGCCAACGUCCUCAACGUCCAAUGCAUCCCACCACAUGAUGAUGCCUGAAGAGCUUUGGUUUUUUG | -3.98
GACCAAUCUGCCCUUAGAGCUCGAGAACAUCUUCGGAUGCAGAGGAGGCAGGCUUCGGUGGCGCGAUAGCGCCAACGUCCUCAACCUCCAAUGCAUCCCACCACUUGAUGAUGCCUGAAGAGCCUUGGUUUUUUG | -3.42
GACCAAUCUGCCCUUAGAGCUCGAGACCAUCUUCGGAUGCAGAGGAGGCAGGCUUCGGUGGCGCGAUAGCGCCAACGUCCUCAAACUCCAAUGCAUCCCACCACAUGAUGAUGCCUCAAGAGCGUUGAGUUUUUG | -6.66
GACCAAUCUGCCCUGAGAGCUCGAGAACAUCUUCGGAUGCAGAGGAGGCAGGCUUCGGUGGCGCGAUAGCGCCAACGUCCUCAACCUCCAAUGCAUCCCACCACAUGAUGACGCCUGAAGAGCCUUGGUUUUUUG | -1.42
GACCAAUCUGCCCUUAGAGCUCGAGAACAUCUUCGGAUGCAGAGGAGGCAGGCUUCGGUGGCGCGAUAGCGCCAACGUCCUCGACCUCCAAUGCAUCCCACCACAUGAUGAUGCCUGAAGAGCCUUGGUUUUUUG | -1.88
GACCAAUCUGCCCUGAGAGCUCGAGAACAUCUUCGGAUGCAGAGGAGGCAGGCUUCGGUGGCGCGAUAGCGCCAACGUCCUCAACCUCCAAUGCAGCCCACCACAUGAUGAUGCCUGAAAAGCCUUGGUUUUUUG | -1.53
GACCAAUCUGCCCUUAGGGCUCGAGAACAUCUUCGGGUGCAGAGGAGGCAGGCAUCGGUGGCGCCAUAGCGCCAACGUCCUCAACCUCCAAUGCAUCCCUCCACAUGAUGAUGCAUGAAGAGCCUUGGUUUUUUG | -5.35
GACCAAUCUGCCCUUAGAGCUCGAGAACAUCUUCGGAUGCAGAGGAGGCAGGCUUCGGUGGCGCGAUAGCGCCAACGUCCUCAACCUCCAAUGCAUCCCUCCACAUGAUGAUGCCUUAAGAGCCUUGGUUUUUUG | -2.41
GACCAAUCUGCCCUGAGAGCUCGAGAACAUCUUCGGAUGCAGAGGAUGCAGGCUCCGGUGGCGCGAUAGCGCCAACGCCCUUAACAUCCAAUGCAUCCCACCACAUGAUGAUGCCUGAAUAGCCUUGGUUUUUUG | -2.18
GACCAAUCUGCCCUUAGCGCUCGAGAACAUCUUCGGAUGCAGAGGAGGCAGGCUUCGGUGGCGCGAUAGCGCCAACGUCCUCAACCUCCAAUGCAUCCCACCACAUGAUGAUGCCUGAAGAGCCUUGGUUUUUUG | -3.52
GACCAAUCUGCCCUUAGAGCUCGAGAAUAUCUUCGGAUGCAGAGGAGGCAGGCUUCGGUGGCGCGAUGGCGCCAACGUCCUCAACCUCCAAUGCAUCCCACCACAUGAUAAUGCCUGAAGAGCCUUGGUUUUUUG | -2.39
GACCAAUCUGCCCUGAGAGCUCGAGAACAUCUUCGGAUGCAGAGGAGACAGGCUUCGGUGGCGCGAUAGCGCCAACGGCCUCAACCUCCAAUGCAUUCCACCACAUGAUGUUGCCUGAAGAGCCUUGGUUUUUUG | -6.43
GACCAAUCUGCCCUUAGAGCUCGAGAACAUCUUAGGAUGCAGAGGAGGCAGGCUUCGGUCGCGCGAUAGCGCCAACGUCCUGAACCUCCAAUGCAUCCCACCACGUGAUGAUUCCUGAAGAGCCUUGGUUUUUUG | -6.14
